# Test results as given in the Immune Epitope Database (IEDB).
# pIC50, pKd: −log10 of the molar value.
# Experiments:
# [1] = molecular target: HLA-B*51:01; assay: IEDB peptide-MHC binding, purified MHC/direct/fluorescence; filed as Kd, often an IC50 or EC50 that approximates it; ≥ and ≤ were set here for values at or beyond the usual limits of such assays
# [2] = molecular target: HLA-B*07:02; assay: as above
# [3] = molecular target: HLA-B*39:01; assay: IEDB peptide-MHC binding, purified MHC/competitive/fluorescence; filed as Kd, often an IC50 or EC50 that approximates it; ≥ and ≤ were set here for values at or beyond the usual limits of such assays
# [4] = molecular target: HLA-B*15:09; assay: IEDB peptide-MHC binding, purified MHC/direct/fluorescence; filed as Kd, often an IC50 or EC50 that approximates it; ≥ and ≤ were set here for values at or beyond the usual limits of such assays
# [5] = molecular target: HLA-A*02:03; assay: IEDB peptide-MHC binding, purified MHC/competitive/fluorescence; filed as Kd, often an IC50 or EC50 that approximates it; ≥ and ≤ were set here for values at or beyond the usual limits of such assays; conditions: source organism: Influenza A virus (A/81/HO)
# [6] = molecular target: HLA-A*31:01; assay: as above
# [7] = molecular target: HLA-B*40:01; assay: IEDB peptide-MHC binding, purified MHC/direct/fluorescence; filed as Kd, often an IC50 or EC50 that approximates it; ≥ and ≤ were set here for values at or beyond the usual limits of such assays
# [8] = molecular target: HLA-B*57:01; assay: as above
# [9] = molecular target: HLA-B*18:01; assay: as above
# [10] = molecular target: HLA-B*46:01; assay: as above
# [11] = molecular target: HLA-B*27:05; assay: as above
# [12] = molecular target: HLA-A*11:01; assay: as above
# [13] = molecular target: HLA-B*48:01; assay: as above
# [14] = molecular target: HLA-B*15:17; assay: as above; conditions: source organism: Influenza A virus (A/duck/Hokkaido/1130/01(H1N1))
# [15] = molecular target: HLA-A*02:01; assay: as above
# [16] = molecular target: HLA-B*15:01; assay: as above
# [17] = molecular target: HLA-A*01:01; assay: as above
# [18] = molecular target: HLA-B*58:01; assay: as above
# [19] = molecular target: HLA-A*03:01; assay: as above
# [20] = molecular target: HLA-A*69:01; assay: as above
# [21] = molecular target: HLA-B*39:01; assay: as above
# [22] = molecular target: HLA-A*02:19; assay: as above; conditions: source organism: Rickettsia prowazekii
# [23] = molecular target: HLA-A*02:11; assay: as above; conditions: source organism: Rickettsia prowazekii
# [24] = molecular target: HLA-A*03:01; assay: IEDB peptide-MHC binding, purified MHC/competitive/fluorescence; filed as Kd, often an IC50 or EC50 that approximates it; ≥ and ≤ were set here for values at or beyond the usual limits of such assays
# [25] = molecular target: HLA-B*15:17; assay: as above
# [26] = molecular target: HLA-B*08:01; assay: IEDB peptide-MHC binding, purified MHC/direct/fluorescence; filed as Kd, often an IC50 or EC50 that approximates it; ≥ and ≤ were set here for values at or beyond the usual limits of such assays
# [27] = molecular target: HLA-A*26:01; assay: as above; conditions: source organism: Bacillus licheniformis
# [28] = molecular target: HLA-A*31:01; assay: as above
# [29] = molecular target: HLA-B*08:01; assay: IEDB peptide-MHC binding, purified MHC/competitive/radioactivity; filed as Kd, often an IC50 or EC50 that approximates it; ≥ and ≤ were set here for values at or beyond the usual limits of such assays; conditions: source organism: Dengue virus 4 Philippines/H241/1956
# [30] = molecular target: HLA-B*15:01; assay: IEDB peptide-MHC binding, purified MHC/competitive/fluorescence; filed as Kd, often an IC50 or EC50 that approximates it; ≥ and ≤ were set here for values at or beyond the usual limits of such assays; conditions: source organism: Salmonella enterica subsp. enterica serovar Typhi
# [31] = molecular target: HLA-A*29:02; assay: IEDB peptide-MHC binding, purified MHC/direct/fluorescence; filed as Kd, often an IC50 or EC50 that approximates it; ≥ and ≤ were set here for values at or beyond the usual limits of such assays
# [32] = molecular target: HLA-B*44:02; assay: as above
# [33] = molecular target: HLA-B*07:02; assay: IEDB peptide-MHC binding, purified MHC/competitive/fluorescence; ≥ and ≤ were set here for values at or beyond the usual limits of such assays; conditions: source organism: Sudan ebolavirus
# [34] = molecular target: HLA-A*26:01; assay: IEDB peptide-MHC binding, purified MHC/competitive/fluorescence; filed as Kd, often an IC50 or EC50 that approximates it; ≥ and ≤ were set here for values at or beyond the usual limits of such assays; conditions: source organism: Orthohantavirus sinnombreense
# [35] = molecular target: HLA-B*27:03; assay: as above; conditions: source organism: Orthohantavirus sinnombreense
# [36] = molecular target: HLA-B*51:01; assay: as above; conditions: source organism: Orthohantavirus sinnombreense
# [37] = molecular target: HLA-A*68:02; assay: IEDB peptide-MHC binding, purified MHC/direct/fluorescence; filed as Kd, often an IC50 or EC50 that approximates it; ≥ and ≤ were set here for values at or beyond the usual limits of such assays; conditions: source organism: Convict Creek 107 virus
# [38] = molecular target: HLA-A*24:03; assay: as above; conditions: source organism: Convict Creek 107 virus
# [39] = source organism: Giardia lamblia ATCC 50803
# [40] = source organism: Influenza A virus (A/duck/Hokkaido/1130/01(H1N1))
# [41] = source organism: Vibrio parahaemolyticus AQ3810
# [42] = source organism: Rickettsia prowazekii
# [43] = source organism: Escherichia coli O139:H28 str. E24377A
# [44] = source organism: Bacillus anthracis
# [45] = source organism: Bacillus licheniformis
# [46] = source organism: Salmonella enterica subsp. enterica serovar Typhi
# [47] = source organism: Mycolicibacterium gilvum
# [48] = source organism: Shigella boydii
# [49] = source organism: Mammarenavirus lassaense
# [50] = source organism: Orthohantavirus andesense
sequence,measurement,setting,value
AVSRGTAKL,pKd,[1]; source organism: Alkhumra hemorrhagic fever virus,≤ 4.70
EALAMCLPY,pKd,[1]; [39],≤ 4.70
same,pKd,[2]; [39],5.28
EHFLGIWGL,pKd,[3]; source organism: Bacillus thuringiensis str. Al Hakam,7.75
same,pKd,[4]; source organism: Bacillus cereus H3081.97,7.03
ELRSRYWAI,pKd,[5],≤ 4.70
same,pKd,[6]; source organism: Influenza A virus (A/81/HO),≤ 4.70
same,pKd,[7]; [40],≤ 4.70
same,pKd,[8]; [40],≤ 4.70
same,pKd,[9]; [40],5.61
same,pKd,[10]; [40],≤ 4.70
same,pKd,[11]; [40],≤ 4.70
same,pKd,[12]; [40],≤ 4.70
same,pKd,[13]; [40],≤ 4.70
same,pKd,[14],≤ 4.70
same,pKd,[15]; [40],≤ 4.70
same,pKd,[16]; [40],≤ 4.70
same,pKd,[17]; [40],≤ 4.70
same,pKd,[18]; [40],≤ 4.70
same,pKd,[1]; [40],≤ 4.70
same,pKd,[19]; [40],≤ 4.70
same,pKd,[20]; [40],6.82
same,pKd,[2]; [40],≤ 4.70
EQYGPRHTL,pKd,[4]; [41],6.74
same,pKd,[21]; [41],8.40
FGSGWTWVV,pKd,[22],≥ 9.00
same,pKd,[15]; [42],6.17
same,pKd,[23],≥ 9.00
same,pKd,[20]; [42],5.93
FHGAKEIAL,pKd,[21]; source organism: Influenza A virus H3N2,6.76
GINWKHPKR,pKd,[6]; [43],6.70
same,pKd,[24]; [43],5.80
GTGAGVPSK,pKd,[6]; source organism: Bacillus anthracis str. A0488,6.19
same,pKd,[12]; [44],7.95
same,pKd,[19]; [44],5.94
KTIECSKEL,pKd,[25]; [45],8.00
same,pKd,[7]; [45],≤ 4.70
same,pKd,[26]; [45],≤ 4.70
same,pKd,[27],≤ 4.70
same,pKd,[11]; [45],≤ 4.70
same,pKd,[12]; [45],≤ 4.70
same,pKd,[15]; [45],6.63
same,pKd,[28]; [45],5.25
same,pKd,[16]; [45],6.33
same,pKd,[17]; [45],≤ 4.70
same,pKd,[18]; [45],6.55
same,pKd,[19]; [45],≤ 4.70
same,pKd,[20]; [45],≤ 4.70
same,pKd,[2]; [45],≤ 4.70
MPVMKRYSA,pKd,[29],8.08
same,pKd,[1]; source organism: dengue virus type 4,≤ 4.70
MTDAIRTLK,pKd,[6]; [46],5.64
same,pKd,[30],≤ 4.70
same,pKd,[24]; [46],6.87
PHDPDFLVL,pKd,[31]; [47],≤ 4.70
same,pKd,[7]; [47],≤ 4.70
same,pKd,[8]; [47],≤ 4.70
same,pKd,[9]; [47],≤ 4.70
same,pKd,[10]; [47],≤ 4.70
same,pKd,[11]; [47],≤ 4.70
same,pKd,[32]; [47],≤ 4.70
same,pKd,[13]; [47],≤ 4.70
same,pKd,[15]; [47],≤ 4.70
same,pKd,[28]; [47],≤ 4.70
same,pKd,[16]; [47],≤ 4.70
same,pKd,[17]; [47],≤ 4.70
same,pKd,[18]; [47],≤ 4.70
same,pKd,[19]; [47],≤ 4.70
same,pKd,[20]; [47],≤ 4.70
same,pKd,[21]; source organism: Mycolicibacterium gilvum PYR-GCK,5.17
PLSRLFYPK,pKd,[6]; [48],7.13
same,pKd,[12]; [48],6.89
same,pKd,[19]; [48],6.19
RPSSSQIPS,pIC50,[33],4.96
SHGIDVTDL,pKd,[31]; [49],≤ 4.70
same,pKd,[7]; [49],≤ 4.70
same,pKd,[8]; [49],≤ 4.70
same,pKd,[9]; [49],≤ 4.70
same,pKd,[10]; [49],≤ 4.70
same,pKd,[4]; [49],≤ 4.70
same,pKd,[11]; [49],≤ 4.70
same,pKd,[12]; [49],≤ 4.70
same,pKd,[32]; [49],≤ 4.70
same,pKd,[13]; [49],≤ 4.70
same,pKd,[15]; [49],≤ 4.70
same,pKd,[28]; [49],≤ 4.70
same,pKd,[16]; [49],≤ 4.70
same,pKd,[17]; [49],≤ 4.70
same,pKd,[18]; [49],≤ 4.70
same,pKd,[19]; [49],≤ 4.70
same,pKd,[20]; [49],≤ 4.70
same,pKd,[21]; [49],≤ 4.70
same,pKd,[2]; [49],≤ 4.70
TVDSLSPLK,pKd,[6]; [39],≤ 4.70
same,pKd,[12]; [39],7.91
same,pKd,[19]; [39],6.44
YLQAKSQVL,pKd,[34],≤ 4.70
same,pKd,[35],≤ 4.70
same,pKd,[25]; source organism: Orthohantavirus sinnombreense,≤ 4.70
same,pKd,[36],≤ 4.70
same,pKd,[31]; [50],≤ 4.70
same,pKd,[7]; [50],≤ 4.70
same,pKd,[37],≤ 4.70
same,pKd,[26]; [50],6.33
same,pKd,[8]; [50],≤ 4.70
same,pKd,[9]; [50],≤ 4.70
same,pKd,[10]; [50],≤ 4.70
same,pKd,[11]; [50],≤ 4.70
same,pKd,[12]; [50],≤ 4.70
same,pKd,[28]; [50],≤ 4.70
same,pKd,[17]; [50],≤ 4.70
same,pKd,[18]; [50],≤ 4.70
same,pKd,[38],≤ 4.70
same,pKd,[19]; [50],≤ 4.70
same,pKd,[20]; [50],≤ 4.70
YRYEFNNDW,pKd,[3]; source organism: Yersinia pseudotuberculosis IP 31758,6.00
same,pKd,[4]; source organism: Yersinia pestis CA88-4125,≤ 4.70
